Holding throughout (assay type): cell-based, mouse
One assay concerns mAgrp promoter. The experiment in a line: NHR-promoter luciferase screen, mAgrp promoter. The settings on record: for Results of assays of transcription factor (+/- ligand) with mAgrp: Table 6d, luciferase activity relative to control (control = 1.00); for Luc. act., normalized to lacZ / Normalized Luc. act., normalized to control: mAgrp promoter, HR component with or without ligand; for Normalized Luc. act., normalized to control: relative to control. The procedure: (§1) The use, feasibility, and reproducibility of the functional NHR-promoter screen in a 48-well format have been tested validated. Briefly, there were co-expressed 50 ng of each NHR/NHR homodimer or NHR/RXR heterodimer with 100 ng promoter/luciferase construct and 50 ng of LacZ (as a control for transfection efficiency) in CV-1 cells using Fugene HD (Roche) as a transfection reagent (alternatively or additionally, a CMV-YFP construct can be used as a transfection control). Each of the nuclear hormone receptors that were used in these experiments was cloned into a pcDNA3.1 vector and comprised a C-terminally linked V5H6 tag. Twenty-four hours after transfection, appropriate ligands were added, where applicable, (see Table 5 for various ligands and concentrations and after 48 hrs, samples were assayed for luciferase and LacZ activity. To measure for luciferase activity 15 ul of sample was added to 30 ul of luciferase buffer (20 mM tricine, 1.07 mM MgCarbonate, 2.67 mM MgSulfate, 0.1 mM Naz-EDTA, 5 mM DTT, 5 mM ATP, 0.15 mg/ml CoA, 0.5 mM Luciferin), mixed briefly, and run in a Perkin Elmer Victor 5 luminometer. Thus, the functional NHR-promoter screen was used to observe the transcriptional activity of 29 promoters from various physiological pathways including inflammation, lipid and sugar metabolism, cholesterol transport, xenobiotic metabolism, and circadian rhythm.
(§2) The promoters that facilitate transcription of the indicated gene products that were tested using the protocols described herein are listed in the first row of the table. The nuclear hormone receptors and, where applicable, ligands that were assayed for their transcriptional effects on the promoters are listed in the first column of the table. The data represent the luciferase activity of each sample normalized to both the lacZ activity of that sample and to a control, e.g., no NHR or ligand, as customary in the art. As described previously, these normalizations allow the transcriptional activity of each reporter cell to be compared to other samples.
(§3) Tables 7-40 show the transcriptional effects of the hormone receptors, and, where applicable, ligands (orphan receptors are screened without ligand), on each individual promoter. […] The control data of each table are shown in their last rows.

The subject of another assay is mUCP1 promoter. Kind of assay: NHR-promoter luciferase screen, mUCP1 promoter. The following applies: for Luc. act., normalized to lacZ / Normalized Luc. act., normalized to control: mUCP1 promoter reporter, co-transfected HR, with or without its ligand; for Normalized Luc. act., normalized to control: relative to control; for luciferase activity normalized to lacZ activity and to a control, mUCP!: mUCP! promoter-luciferase, CV-1 cells, NHR +/- ligand, control = 1.00. The procedure:
as §1, §2, §3

For another assay, the system named is mGhrelin promoter. Kind of assay: NHR-promoter luciferase screen, mGhrelin promoter. The following applies: for Luc. act., normalized to lacZ / Normalized Luc. act., normalized to control: Table 8, mGhrelin; for Results of assays of transcription factor (+/- ligand) with mGhrelin: Table 6d, luciferase activity relative to control (control = 1.00). The procedure: as §1, §2, §3

The test system of another assay is mPgc1b promoter. Kind of assay: NHR-promoter luciferase screen, mPgc1b promoter. The settings on record: for Luc. act., normalized to lacZ / Normalized Luc. act., normalized to control: PGC1b promoter reporter, co-transfected HR, without or with its ligand; for Normalized Luc. act., normalized to control: relative to control; for luciferase activity normalized to lacZ activity and to a control, mPgc1b: mPgc1b promoter-luciferase, CV-1 cells, NHR +/- ligand, control = 1.00. The procedure: Briefly, there were co-expressed 50 ng of each NHR/NHR homodimer or NHR/RXR heterodimer with 100 ng promoter/luciferase construct and 50 ng of LacZ (as a control for transfection efficiency) in CV-1 cells using Fugene HD (Roche) as a transfection reagent (alternatively or additionally, a CMV-YFP construct can be used as a transfection control). Each of the nuclear hormone receptors that were used in these experiments was cloned into a pcDNA3.1 vector and comprised a C-terminally linked V5H6 tag.
as §2, §3

The subject of the next assay is mAdiponectin promoter. Kind of assay: NHR-promoter luciferase screen, mAdiponectin promoter. The following applies: for Luc. act., normalized to lacZ / Normalized Luc. act., normalized to control: Adiponectin, HR component without or with its ligand; for mAdiponectin promoter reporter activity: transcription factor +/- ligand, control = 1.00. The procedure: as §1, §2, §3

B1: RVRa: Rev-Erb α (NR1D1), cDNA driver (protein, UniProt P20393 1-614, looked up)
Nuclear receptor subfamily 1 …: MTTLDSNNNTGGVITYIGSSGSSPSRTSPESLYSDNSNGSFQSLTQGCPTYFPPSPTGSLTQDPARSFGSIPPSLSDDGSPSSSSSSSSSSSSFYNGSPPGSLQVAMEDSSRVSPSKSTSNITKLNGMVLLCKVCGDVASGFHYGVHACEGCKGFFRRSIQQNIQYKRCLKNENCSIVRINRNRCQQCRFKKCLSVGMSRDAVRFGRIPKREKQRMLAEMQSAMNLANNQLSSQCPLETSPTQHPTPGPMGPSPPPAPVPSPLVGFSQFPQQLTPPRSPSPEPTVEDVISQVARAHREIFTYAHDKLGSSPGNFNANHASGSPPATTPHRWENQGCPPAPNDNNTLAAQRHNEALNGLRQAPSSYPPTWPPGPAHHSCHQSNSNGHRLCPTHVYAAPEGKAPANSPRQGNSKNVLLACPMNMYPHGRSGRTVQEIWEDFSMSFTPAVREVVEFAKHIPGFRDLSQHDQVTLLKAGTFEVLMVRFASLFNVKDQTVMFLSRTTYSLQELGAMGMGDLLSAMFDFSEKLNSLALTEEELGLFTAVVLVSADRSGMENSASVEQLQETLLRALRALVLKNRPLETSRFTKLLLKLPDLRTLNNMHSEKLLSFRVDAQ
Take B1: in the assay with mAgrp promoter, the “Results of assays of transcription factor (+/- ligand) with mAgrp” value (from here on “Results of assays … with mAgrp”) amounted to 1.21; the “Luc. act., normalized to lacZ” value is 47.9; the “Normalized Luc. act., normalized to control” value is 1.2. In the assay on mUCP1 promoter, the “Luc. act., normalized to lacZ” value came out at 3.8; the “Normalized Luc. act., normalized to control” value came out at 0.8; the “luciferase activity normalized to lacZ activity and to a control, mUCP!” value (“luciferase activity normalized … mUCP!” for short) was found to be 0.85. For the same molecule, in the assay with mGhrelin promoter, the “Luc. act., normalized to lacZ” value is recorded as 79.3; the “Normalized Luc. act., normalized to control” value is 1.5; the “Results of assays of transcription factor (+/- ligand) with mGhrelin” value (shortened to “Results of assays … with mGhrelin”) is 1.52. Besides, in the assay on mPgc1b promoter, the “Luc. act., normalized to lacZ” value is on record as 8.8; the “Normalized Luc. act., normalized to control” value is reported as 0.7; the “luciferase activity normalized to lacZ activity and to a control, mPgc1b” value (“luciferase activity normalized … mPgc1b” for short) came out at 0.74. In the assay with mAdiponectin promoter, the “Luc. act., normalized to lacZ” value is 55.2; the “Normalized Luc. act., normalized to control” value is on record as 0.9; the “mAdiponectin promoter reporter activity” value is 0.88.

B2: RORa: RAR-related Orphan Receptor α (NR1F1), cDNA driver (protein, UniProt P35398 1-523, looked up)
Nuclear receptor ROR-alpha: MESAPAAPDPAASEPGSSGADAAAGSRETPLNQESARKSEPPAPVRRQSYSSTSRGISVTKKTHTSQIEIIPCKICGDKSSGIHYGVITCEGCKGFFRRSQQSNATYSCPRQKNCLIDRTSRNRCQHCRLQKCLAVGMSRDAVKFGRMSKKQRDSLYAEVQKHRMQQQQRDHQQQPGEAEPLTPTYNISANGLTELHDDLSNYIDGHTPEGSKADSAVSSFYLDIQPSPDQSGLDINGIKPEPICDYTPASGFFPYCSFTNGETSPTVSMAELEHLAQNISKSHLETCQYLREELQQITWQTFLQEEIENYQNKQREVMWQLCAIKITEAIQYVVEFAKRIDGFMELCQNDQIVLLKAGSLEVVFIRMCRAFDSQNNTVYFDGKYASPDVFKSLGCEDFISFVFEFGKSLCSMHLTEDEIALFSAFVLMSADRSWLQEKVKIEKLQQKIQLALQHVLQKNHREDGILTKLICKVSTLRALCGRHTEKLMAFKAIYPDIVRLHFPPLYKELFTSEFEPAMQIDG
B2: in the assay on mAgrp promoter, the “Results of assays … with mAgrp” value is 1.65; the “Luc. act., normalized to lacZ” value is 65.6; the “Normalized Luc. act., normalized to control” value is on record as 1.7. In the assay with mUCP1 promoter, the “Luc. act., normalized to lacZ” value was 1.7; the “Normalized Luc. act., normalized to control” value came to 0.4; the “luciferase activity normalized … mUCP!” value turned out to be 0.38. In the assay on mGhrelin promoter, the “Luc. act., normalized to lacZ” value amounted to 46.6; the “Normalized Luc. act., normalized to control” value was determined as 0.9; the “Results of assays … with mGhrelin” value came to 0.89. In the assay with mPgc1b promoter, the “Luc. act., normalized to lacZ” value stood at 10.8; the “Normalized Luc. act., normalized to control” value is listed as 0.9; the “luciferase activity normalized … mPgc1b” value is given as 0.91. For the same molecule, in the assay on mAdiponectin promoter, the “Luc. act., normalized to lacZ” value is reported as 80.0; the “Normalized Luc. act., normalized to control” value stood at 1.3; the “mAdiponectin promoter reporter activity” value stood at 1.27.

B3: RORg: RAR-related Orphan Receptor γ (NR1F3), cDNA driver (protein, UniProt P51449 1-518, looked up)
Nuclear receptor ROR-gamma: MDRAPQRQHRASRELLAAKKTHTSQIEVIPCKICGDKSSGIHYGVITCEGCKGFFRRSQRCNAAYSCTRQQNCPIDRTSRNRCQHCRLQKCLALGMSRDAVKFGRMSKKQRDSLHAEVQKQLQQRQQQQQEPVVKTPPAGAQGADTLTYTLGLPDGQLPLGSSPDLPEASACPPGLLKASGSGPSYSNNLAKAGLNGASCHLEYSPERGKAEGRESFYSTGSQLTPDRCGLRFEEHRHPGLGELGQGPDSYGSPSFRSTPEAPYASLTEIEHLVQSVCKSYRETCQLRLEDLLRQRSNIFSREEVTGYQRKSMWEMWERCAHHLTEAIQYVVEFAKRLSGFMELCQNDQIVLLKAGAMEVVLVRMCRAYNADNRTVFFEGKYGGMELFRALGCSELISSIFDFSHSLSALHFSEDEIALYTALVLINAHRPGLQEKRKVEQLQYNLELAFHHHLCKTHRQSILAKLPPKGKLRSLCSQHVERLQIFQHLHPIVVQAAFPPLYKELFSTETESPVGLSK
Take B3: in the assay with mAgrp promoter, the “Results of assays … with mAgrp” value stood at 2.51; the “Luc. act., normalized to lacZ” value is 99.6; the “Normalized Luc. act., normalized to control” value is recorded as 2.5. In the assay with mUCP1 promoter, the “Luc. act., normalized to lacZ” value stood at 2.8; the “Normalized Luc. act., normalized to control” value is listed as 0.6; the “luciferase activity normalized … mUCP!” value came to 0.62. In the assay with mGhrelin promoter, the “Luc. act., normalized to lacZ” value was 109.2; the “Normalized Luc. act., normalized to control” value was determined as 2.1; the “Results of assays … with mGhrelin” value amounted to 2.09. Also, in the assay on mPgc1b promoter, the “Luc. act., normalized to lacZ” value is reported as 15.9; the “Normalized Luc. act., normalized to control” value is on record as 1.3; the “luciferase activity normalized … mPgc1b” value is given as 1.34. For the same molecule, in the assay with mAdiponectin promoter, the “Luc. act., normalized to lacZ” value is given as 133.3; the “Normalized Luc. act., normalized to control” value worked out at 2.1; the “mAdiponectin promoter reporter activity” value stood at 2.12.

B4: RVRb: Rev-Erb β (NR1D2, alternative name RVR), cDNA driver (protein, UniProt Q14995 1-579, looked up)
Nuclear receptor subfamily 1 …: MEVNAGGVIAYISSSSSASSPASCHSEGSENSFQSSSSSVPSSPNSSNSDTNGNPKNGDLANIEGILKNDRIDCSMKTSKSSAPGMTKSHSGVTKFSGMVLLCKVCGDVASGFHYGVHACEGCKGFFRRSIQQNIQYKKCLKNENCSIMRMNRNRCQQCRFKKCLSVGMSRDAVRFGRIPKREKQRMLIEMQSAMKTMMNSQFSGHLQNDTLVEHHEQTALPAQEQLRPKPQLEQENIKSSSPPSSDFAKEEVIGMVTRAHKDTFMYNQEQQENSAESMQPQRGERIPKNMEQYNLNHDHCGNGLSSHFPCSESQQHLNGQFKGRNIMHYPNGHAICIANGHCMNFSNAYTQRVCDRVPIDGFSQNENKNSYLCNTGGRMHLVCPMSKSPYVDPHKSGHEIWEEFSMSFTPAVKEVVEFAKRIPGFRDLSQHDQVNLLKAGTFEVLMVRFASLFDAKERTVTFLSGKKYSVDDLHSMGAGDLLNSMFEFSEKLNALQLSDEEMSLFTAVVLVSADRSGIENVNSVEALQETLIRALRTLIMKNHPNEASIFTKLLLKLPDLRSLNNMHSEELLAFKVHP
On to B4, for which, in the assay on mAgrp promoter, the “Results of assays … with mAgrp” value was determined as 1.05; the “Luc. act., normalized to lacZ” value turned out to be 41.7; the “Normalized Luc. act., normalized to control” value turned out to be 1.1. In addition, in the assay on mUCP1 promoter, the “Luc. act., normalized to lacZ” value is reported as 4.3; the “Normalized Luc. act., normalized to control” value was found to be 1.0; the “luciferase activity normalized … mUCP!” value was found to be 0.96. Moreover, in the assay with mGhrelin promoter, the “Luc. act., normalized to lacZ” value is 126.8; the “Normalized Luc. act., normalized to control” value is reported as 2.4; the “Results of assays … with mGhrelin” value was determined as 2.43. Moreover, in the assay with mPgc1b promoter, the “Luc. act., normalized to lacZ” value was found to be 9.3; the “Normalized Luc. act., normalized to control” value is recorded as 0.8; the “luciferase activity normalized … mPgc1b” value came out at 0.78. Moreover, in the assay with mAdiponectin promoter, the “Luc. act., normalized to lacZ” value is 66.3; the “Normalized Luc. act., normalized to control” value was 1.1; the “mAdiponectin promoter reporter activity” value was 1.06.
